According to paper PMC10711565:
Read-outs that look alike come from different tables or passages of the source.

B1: miR-122 (ssRNA)
RNA: UGGAGUGUGACAAUGGUGUUUG
B2: HCV45 (structured_RNA)
RNA: GCCAGCCCCCUGAUGGGGGCGACACUCCACCAUGAAUCACUCCCC
B3: HCV45:miR-122 complex (structured_RNA)
RNA 1: GCCAGCCCCCUGAUGGGGGCGACACUCCACCAUGAAUCACUCCCC
RNA 2: UGGAGUGUGACAAUGGUGUUUG
B4: HCV47 (structured_RNA)
RNA: GCCAGCCCCCUGAUGGGGGCGACACUCCACCAUGAAUCACUCCCCUG

Experiments:
Assay in all cases: fluorescence anisotropy
PCBP2 [1] = target: T1, PCBP2 (UniProt Q15366 1-365)
PCBP2 [2] = target: T1, PCBP2; remark: listed apart in the source
PCBP2 [3] = target: T1, PCBP2; remark: listed apart in the source

T1 sequence (Q15366 whole entry): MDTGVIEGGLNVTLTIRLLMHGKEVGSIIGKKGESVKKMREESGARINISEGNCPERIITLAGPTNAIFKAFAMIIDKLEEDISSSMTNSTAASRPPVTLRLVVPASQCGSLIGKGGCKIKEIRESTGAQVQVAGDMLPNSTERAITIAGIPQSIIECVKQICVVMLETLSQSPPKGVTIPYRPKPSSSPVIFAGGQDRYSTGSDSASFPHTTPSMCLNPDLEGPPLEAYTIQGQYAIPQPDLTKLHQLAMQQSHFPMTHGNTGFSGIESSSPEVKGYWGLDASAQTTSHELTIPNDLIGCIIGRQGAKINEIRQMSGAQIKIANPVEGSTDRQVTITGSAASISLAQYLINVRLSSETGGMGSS

Binder | Kd (PCBP2 [1]) | also measured
B1 | 5.33 ± 0.47 µM | 
B2 | 0.667 ± 0.034 µM | 
B3 |  | Kd (PCBP2 [2]): 9.88 ± 1.6 µM
B4 |  | binding result (PCBP2 [3]): binds
